B1: cytochrome c (natural protein)
chain: not shown
notes: cytochrome c (Cc), a hemeprotein; Carries a heme group; the reduced form was used in ITC and NMR relaxation; 15N-labelled for the NMR titrations; Expression and purification are in the Supporting Information Appendix; also called Cc; hemeprotein Cc; source: details in the Supporting Information
B2: ANP32B_(232-251) peptide (peptide)
peptide: EEGGKGEKRKRETDDEGEDD
notes: also called ANP32B peptide; source: synthetic peptide (Genecust, France)
B3: ANP32B_(232-251) peptide (peptide)
peptide: EEGGKGEKRKRETDDEGEDD
notes: as for B2
B4: ANP32A_(230-249) peptide (peptide)
peptide: EEERGQKRKREPEDEGEDDD
notes: also called ANP32A peptide; source: synthetic peptide (Genecust, France)
B5: ANP32A_(230-249) P241T peptide (peptide)
peptide: EEERGQKRKRETEDEGEDDD
notes: also called single mutant; source: synthetic peptide (Genecust, France)
B6: ANP32A_(230-249) peptide (peptide)
peptide: EEERGQKRKREPEDEGEDDD
notes: also called ANP32A peptide; NLS-containing peptide; source: synthetic peptide (Genecust, France)
B7: ANP32A_(230-249) Q235E/P241T peptide (peptide)
peptide: EEERGEKRKRETEDEGEDDD
notes: also called double mutant; source: synthetic peptide (Genecust, France)

Assays:
Details in all cases: both partners purified
full-length ANP32A [1] = biological target: T1, full-length ANP32A (human, UniProt P39687 1-249); test: ITC; moderate ionic strength (100 mM): 20 mM sodium phosphate pH 7.4 with 50 mM NaCl; 400 µM reduced Cc injected into 50 µM ANP32A; single site
T1 construct: Used in ITC and NMR titrations; construct details are in the Supporting Information Appendix; also called acidic leucine-rich nuclear phosphoprotein 32 A; source: details in the Supporting Information

biotinylated ANP32A = biological target: T2, biotinylated ANP32A (human, UniProt P39687 1-249, biotin (site not stated)); test: BLI; biotinylated ANP32 proteins on a streptavidin-coated sensor, increasing concentrations of Cc; wavelength shifts at equilibrium plotted against Cc concentration
T2 construct: ANP32A, human, biotinylated and attached to a streptavidin-coated sensor

biotinylated ANP32B = biological target: T3, biotinylated ANP32B (human, UniProt Q92688 1-251, biotin (site not stated)); test: as above
T3 construct: ANP32B, human, biotinylated and attached to a streptavidin-coated sensor

full-length ANP32A [2] = biological target: T1, full-length ANP32A; test: ITC; low ionic strength (25 mM): 10 mM sodium phosphate pH 7.4; 400 µM reduced Cc injected into 50 µM ANP32A construct; two-ligand binding sites model, no cooperativity
full-length ANP32A [3] = biological target: T1, full-length ANP32A; test: as above; remark: listed apart in the source
HuR_(106-326) [4] = biological target: T4, HuR_(106-326) (UniProt Q15717 106-326); test: ITC; 1 mM peptide titrated onto 100 µM HuR_(106-326); 10 mM sodium phosphate pH 6.3, low ionic strength
T4 construct: also called HuR construct containing the RRM domains 2 and 3, separated by the hinge region; source: details in the Supporting Information
T4 sequence (Q15717 106-326): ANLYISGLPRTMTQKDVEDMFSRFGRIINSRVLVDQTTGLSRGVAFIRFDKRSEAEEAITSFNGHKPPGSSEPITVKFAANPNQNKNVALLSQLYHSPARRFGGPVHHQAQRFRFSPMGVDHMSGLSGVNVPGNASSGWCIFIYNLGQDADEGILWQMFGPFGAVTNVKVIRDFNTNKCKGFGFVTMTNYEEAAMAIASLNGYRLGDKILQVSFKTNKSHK

cytochrome c = biological target: B1; test: ITC; 1 mM peptide titrated onto 110 or 150 µM reduced Cc; 10 mM sodium phosphate pH 6.3; single binding-site model
cytochrome c, sequence (P99999 2-105): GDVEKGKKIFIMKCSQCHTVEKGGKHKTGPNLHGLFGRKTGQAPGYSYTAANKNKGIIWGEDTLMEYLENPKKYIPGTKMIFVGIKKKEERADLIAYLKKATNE

HuR_(106-326) [5] = biological target: T5, HuR_(106-326) (UniProt Q15717 106-326); test: ITC; 1 mM peptide titrated onto 100 µM HuR106-326 in the cell; 17 injections of 2.91 µL; 10 mM sodium phosphate buffer pH 6.3 (low ionic strength); stirring 200 rpm; Nano ITC Low Volume
T5 construct: amplified from a pGEX-4T-2 plasmid carrying full-length HuR; No cleavage of the tags is told; also called human antigen R construct with RRM2, hinge region and RRM3; source: E. coli BL21 (DE3), purified (Ni-NTA, dialysis)
T5 sequence (Q15717 106-326): as the sequence (Q15717 106-326) above

B1
Kd (full-length ANP32A [1]): 32 µM | dH (full-length ANP32A [1]): 1.5 kcal/mol | stoichiometry N (full-length ANP32A [1]): 0.6 ± 0.03 | Kd (biotinylated ANP32A): ~2300 nM | Kd (biotinylated ANP32B): ~4.2 µM | stoichiometry N (full-length ANP32A [2]): 2 | KD of site 1 (full-length ANP32A [3]): 3.6 µM | KD of site 2 (full-length ANP32A [3]): 34 µM | dH of site 1 (full-length ANP32A [3]): 0.4 kcal/mol | dH of site 2 (full-length ANP32A [3]): 8.6 kcal/mol

B2
stoichiometry N (HuR_(106-326) [4]): 2 | Kd (cytochrome c): 710 µM | dH (cytochrome c): -8 kcal/mol | stoichiometry N (cytochrome c): 1.2 ± 0.03

B3
Kd (HuR_(106-326) [5]): 550 µM | stoichiometry N (HuR_(106-326) [5]): 1.9 ± 0.03

B4
Kd (HuR_(106-326) [5]): 120 µM | stoichiometry N (HuR_(106-326) [5]): 1.8 ± 0.03

B5
Kd (cytochrome c): 190 µM | dH (cytochrome c): -6.9 kcal/mol | stoichiometry N (cytochrome c): 0.77 ± 0.03

B6
fold affinity against ANP32B_(232-251) (HuR_(106-326) [4]): ~5 fold | stoichiometry N (HuR_(106-326) [4]): 2 | Kd (cytochrome c): 69 µM | dH (cytochrome c): -2.6 kcal/mol | stoichiometry N (cytochrome c): 0.76 ± 0.03

B7
Kd (cytochrome c): 190 µM | dH (cytochrome c): -8.2 kcal/mol | stoichiometry N (cytochrome c): 0.77 ± 0.03
